Reference: patent US20240060082A1

molecular target: soybean's RPS5 homolog (soybean); assay: cell-based or functional assay

| Substance | resistance to the three soy rust strains in transgenic soybean, compared to control event G40 [% efficacy] |
| --- | --- |
| PBS1-R17 (modified Arabidopsis thaliana PBS1 with cleavage site R17, QVFEFL) (from UniProt Q9FE20 1-456) | > 85 |
| PBS1-R19 (modified Arabidopsis thaliana PBS1 with cleavage site R19, QMIFLR) (from UniProt Q9FE20 1-456) | > 85 |
| PBS1-R20 (modified Arabidopsis thaliana PBS1 with cleavage site R20, IFLWSA) (from UniProt Q9FE20 1-456) | > 85 |
